# Results from the supplement of paper PMC10567573.
# ± gives the standard deviation.
# Experiment: protein stability index of a GFP-peptide fusion (GPS, HEK-293T) (PSI 1-6); higher = more stable
# [1] = treatment: DMSO, c terminus: a fixed tail appended
# [2] = treatment: MLN4924 1 uM, 8 h, c terminus: a fixed tail appended
# 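Also: 24-mer peptide tiles fused after GFP, lentivirally expressed, FACS-sorted into six equal bins by GFP/DsRed ratio, decoded by Illumina sequencing, PSI is the read-weighted mean bin number.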
Sequence,protein stability index [1],protein stability index [2],"protein stability index (treatment: DMSO, c terminus: native)","protein stability index (treatment: MLN4924 1 uM, 8 h, c terminus: native)"
SMKASLEGNLAETENRYCVQLSQI [KRT17],3.22 ± 0.34,3.51 ± 0.39,–,–
ETVPWFPKKISDLDHCANRVLMYG [TPH1],2.38 ± 0.24,2.46 ± 0.26,–,–
KEAVLAMEKKSKPKNSVWKRLKSP [RIT1],4.23 ± 0.21,4.19 ± 0.27,–,–
NIGKSHQGLKLYAVEISDHPGEHE [CPXM2],4.24 ± 0.13,4.07 ± 0.41,–,–
EQLERINDALSCEYECRRRMLMKR [FAM98B],3.09 ± 0.37,3.14 ± 0.33,–,–
EEFIEEEDQEEEESTEGKEEGHQ [TRIM63],–,–,5.56 ± 0.41,5.71 ± 0.27
IAILLYKSKPDRKRAESDSRKSSI [PTPRD],1.75 ± 0.23,1.92 ± 0.44,–,–
YPPLEGHVRQGVFSSLNHIVEKRV [INTS3],3.17 ± 0.3,3.38 ± 0.38,–,–
EQCVSFNSHVYNGRTHQWKPLYPD [ADAMTSL2],3.26 ± 0.25,3.08 ± 0.19,–,–
QNIYKCIMLKNISQDERLDVLLTL [IQUB],2.5 ± 0.098,2.61 ± 0.51,–,–
KPTEPSVPVQPLLPESLARSLLPS [FBF1],4.33 ± 0.11,4.43 ± 0.26,–,–
DYGVDPSQFSGTLMRTCERLVKEG [PPTC7],3.72 ± 0.42,3.79 ± 0.35,–,–
FQKSHNSLQRWEHLKKVASRYQNN [PRIM1],2.46 ± 0.42,2.9 ± 0.13,–,–
GFSCDGTANTFRVMFKEPIEILPN [BTBD1],2.6 ± 0.22,2.73 ± 0.31,–,–
ADWFMSLGVGLLTFASLETVGIYF [TMEM40],3.37 ± 0.22,3.04 ± 0.52,–,–
KDGEYCWRWTGFNFGFDLLVTYTN [GMCL1],3.44 ± 0.41,2.89 ± 0.46,–,–
VTPEAKNLINQMLTINPAKRITAH [CAMK2B],2.8 ± 0.14,2.95 ± 0.3,–,–
DCGTIQENWVCLSCYQVYCGRYIN [HDAC6],2.85 ± 1.1,2.39 ± 0.63,–,–
ELGSPLRRSISSSRSENVLSRLSL [PSD2],3.07 ± 0.42,3.2 ± 0.13,–,–
QASEREAPSIEQRLQEVRESIRRA [FCHSD1],5.06 ± 0.35,5 ± 0.31,–,–
EPKNYGSYSTQASAAAATAELLKK [SCAMP3],4.84 ± 0.18,4.83 ± 0.16,–,–
PDGGGPWLEDEPGRGAQGENERVR [ZSWIM9],5.41 ± 0.43,5.5 ± 0.3,–,–

Sequence,protein stability index [1],protein stability index [2],"protein stability index (treatment: DMSO, c terminus: native)","protein stability index (treatment: MLN4924 1 uM, 8 h, c terminus: native)"
HFSQSLTVIHDFLFSLKESPEKFQ [FAF2],2.06 ± 0.23,2.44 ± 0.26,–,–
GNCKYKVDCACLKENPECPVLKRS [KMT2E],3.41 ± 0.5,4.05 ± 0.74,–,–
YIGTHEYPHFSHRPSTLQAASTPQ [OAS1],2.61 ± 0.56,3.16 ± 0.48,–,–
EEGVVGGLSGGALSPLRAASDPLL [TFE3],4.33 ± 0.31,4.63 ± 0.4,–,–
VEFDVLPAFDALGQLTGGYKPNPQ [OAS1],2.85 ± 0.27,2.9 ± 0.21,–,–
KLQKEKEELERRFEDEVKRLGWQQ [MTUS2],4.36 ± 0.35,4.6 ± 0.32,–,–
MRFASGRPAFVRVRRGHSHLAPSE,3.08 ± 0.22,3.29 ± 0.4,–,–
EKLIQERSQQQEPLLCPSYQSYFK [KRT34],3.36 ± 0.23,3.41 ± 0.32,–,–
NREHLVMMEKILGPIPSHMIHRTR [CLK3],2.79 ± 0.34,2.89 ± 0.33,–,–
TLSTIEFQREALENSHTNTEVLRN [CHMP4C],4.66 ± 0.14,4.92 ± 0.19,–,–
PMAEYNMPQYILREFKVTDARDGQ [PTPRD],3.8 ± 0.24,3.75 ± 0.27,–,–
LSLCCWGWVSGQLRYSVVEESEPG [PCDHGC5],2.65 ± 0.48,2.25 ± 0.5,–,–
DKFKRPTPPPSPNTQTPVQPPPPP [CCDC6],5.03 ± 0.091,5.12 ± 0.16,–,–
RYDHGTFFPMGDEGASSQIGRAAG [HDAC6],4.24 ± 0.37,4.13 ± 0.22,–,–
LRRIRAESGTKGLFAGFLPRIIKA [SLC25A39],2.05 ± 0.27,2.15 ± 0.33,–,–
CRNCINLQNEAQKRESFLKYKCLL [IQUB],2.08 ± 0.44,2.22 ± 0.26,–,–
QTEKLDTNITEVDAASVYTLPAGA [CASP6],5.02 ± 0.2,4.81 ± 0.12,–,–
ENSVEFEACLVAQCDALIDALNRR [TRIM9],2.88 ± 0.24,3.11 ± 0.37,–,–
ESEVYSWGKGARGRLGRRDEDAGL [NEK8],4.67 ± 0.19,4.66 ± 0.37,–,–
AHDNSEELERARELKEKEATLCLE [ANKRD44],5.58 ± 0.21,5.45 ± 0.26,–,–
LQHEERETRQKKLEVAMEEEGLAD [STK38L],5.59 ± 0.28,5.56 ± 0.11,–,–
RGRYRQYNSEILEEAISVVMSGKM [LCOR],2.54 ± 0.23,2.71 ± 0.29,–,–
